Measurements taken from the Immune Epitope Database (IEDB).
Values belong to the sequence of their own block, whether it stands above or below them.

How the values were obtained:
HLA-A*01:01 [1] = assay: IEDB peptide-MHC binding, purified MHC/direct/fluorescence; filed as Kd, often an IC50 or EC50 that approximates it; ≥ and ≤ were set here for values at or beyond the usual limits of such assays; settings: source organism: SARS-CoV1
HLA-A*26:01 [2] = assay: as above
HLA-B*15:01 [3] = assay: as above
HLA-B*40:01 [4] = assay: as above; settings: source organism: SARS-CoV1
HLA-B*58:01 [5] = assay: as above; settings: source organism: SARS-CoV1
HLA-C*08:02 = assay: as above
HLA-A*23:01 = assay: IEDB peptide-MHC binding, purified MHC/competitive/radioactivity; filed as Kd, often an IC50 or EC50 that approximates it; ≥ and ≤ were set here for values at or beyond the usual limits of such assays; settings: source organism: SARS coronavirus Tor2
HLA-A*24:02 = assay: as above; settings: source organism: SARS coronavirus Tor2
HLA-A*29:02 = assay: as above; settings: source organism: SARS coronavirus Tor2
HLA-A*30:02 = assay: as above; settings: source organism: SARS coronavirus Tor2
HLA-A*01:01 [6] = assay: IEDB peptide-MHC binding, purified MHC/competitive/fluorescence; filed as Kd, often an IC50 or EC50 that approximates it; ≥ and ≤ were set here for values at or beyond the usual limits of such assays; settings: source organism: Escherichia coli APEC O1
HLA-A*26:01 [7] = assay: as above; settings: source organism: Escherichia coli APEC O1
HLA-B*58:01 [8] = assay: as above; settings: source organism: Escherichia coli APEC O1
HLA-C*03:03 = assay: IEDB peptide-MHC binding, purified MHC/direct/fluorescence; filed as Kd, often an IC50 or EC50 that approximates it; ≥ and ≤ were set here for values at or beyond the usual limits of such assays
HLA-C*05:01 = assay: as above; settings: source organism: Yersinia pestis Nepal516
HLA-C*06:02 = assay: as above; settings: source organism: Yersinia pestis Nepal516
HLA-C*14:02 = assay: as above; settings: source organism: Yersinia pestis Nepal516
HLA-C*15:02 = assay: as above; settings: source organism: Yersinia pestis Nepal516
HLA-B*08:01 = assay: IEDB peptide-MHC binding, purified MHC/competitive/fluorescence; filed as Kd, often an IC50 or EC50 that approximates it; ≥ and ≤ were set here for values at or beyond the usual limits of such assays; settings: source organism: Yersinia pestis Nepal516
HLA-C*12:03 = assay: IEDB peptide-MHC binding, purified MHC/direct/fluorescence; filed as Kd, often an IC50 or EC50 that approximates it; ≥ and ≤ were set here for values at or beyond the usual limits of such assays
HLA-A*02:01 = assay: IEDB peptide-MHC binding, purified MHC/competitive/fluorescence; filed as Kd, often an IC50 or EC50 that approximates it; ≥ and ≤ were set here for values at or beyond the usual limits of such assays
HLA-A*03:01 [9] = assay: IEDB peptide-MHC binding, purified MHC/competitive/radioactivity; filed as Kd, often an IC50 or EC50 that approximates it; ≥ and ≤ were set here for values at or beyond the usual limits of such assays; settings: source organism: Vaccinia virus WR
HLA-A*11:01 = assay: as above; settings: source organism: Vaccinia virus WR
HLA-A*31:01 = assay: as above; settings: source organism: Vaccinia virus WR
HLA-A*33:01 = assay: as above; settings: source organism: Vaccinia virus WR
HLA-A*68:01 = assay: as above; settings: source organism: Vaccinia virus WR
HLA-B*07:02 [10] = assay: as above; settings: source organism: Vaccinia virus WR
HLA-B*35:01 = assay: as above; settings: source organism: Vaccinia virus WR
HLA-B*51:01 [11] = assay: as above; settings: source organism: Vaccinia virus WR
HLA-B*53:01 = assay: as above; settings: source organism: Vaccinia virus WR
HLA-B*54:01 = assay: as above; settings: source organism: Vaccinia virus WR
HLA-A*01:01 [12] = assay: IEDB peptide-MHC binding, purified MHC/competitive/fluorescence; ≥ and ≤ were set here for values at or beyond the usual limits of such assays
HLA-B*39:01 = assay: IEDB peptide-MHC binding, purified MHC/competitive/fluorescence; filed as Kd, often an IC50 or EC50 that approximates it; ≥ and ≤ were set here for values at or beyond the usual limits of such assays; settings: source organism: Escherichia coli 536
HLA-B*40:01 [13] = assay: as above; settings: source organism: Escherichia coli 536
HLA-A*02:19 = assay: IEDB peptide-MHC binding, purified MHC/direct/fluorescence; filed as Kd, often an IC50 or EC50 that approximates it; ≥ and ≤ were set here for values at or beyond the usual limits of such assays; settings: source organism: Vibrio cholerae O1 biovar El Tor
HLA-A*03:01 [14] = assay: as above; settings: source organism: Vibrio cholerae O1 biovar El Tor
HLA-B*18:01 [15] = assay: as above; settings: source organism: Vibrio cholerae O1 biovar El Tor
HLA-B*27:03 = assay: as above; settings: source organism: Vibrio cholerae O1 biovar El Tor
HLA-B*46:01 = assay: as above; settings: source organism: Vibrio cholerae O1 biovar El Tor
HLA-B*51:01 [16] = assay: as above; settings: source organism: Vibrio cholerae O1 biovar El Tor
HLA-B*15:01 [17] = assay: IEDB peptide-MHC binding, purified MHC/competitive/fluorescence; ≥ and ≤ were set here for values at or beyond the usual limits of such assays; settings: source organism: Vaccinia virus Copenhagen
HLA-B*07:02 [18] = assay: IEDB peptide-MHC binding, purified MHC/direct/fluorescence; filed as Kd, often an IC50 or EC50 that approximates it; ≥ and ≤ were set here for values at or beyond the usual limits of such assays; settings: source organism: Macaca fascicularis
HLA-B*15:01 [19] = assay: IEDB peptide-MHC binding, purified MHC/competitive/fluorescence; filed as Kd, often an IC50 or EC50 that approximates it; ≥ and ≤ were set here for values at or beyond the usual limits of such assays; settings: source organism: Homo sapiens
HLA-B*18:01 [20] = assay: as above; settings: source organism: Homo sapiens
HLA-B*51:01 [21] = assay: as above; settings: source organism: Homo sapiens
[22] = source organism: Vaccinia virus Copenhagen
[23] = source organism: Vibrio cholerae O1 biovar El Tor
[24] = source organism: Vibrio cholerae B33

Sequence: FADINGKLY
Kd (HLA-A*01:01 [1]): 191 nM
Kd (HLA-A*26:01 [2]; source organism: SARS-CoV1): 562 nM
Kd (HLA-B*15:01 [3]; source organism: SARS-CoV1): 3140 nM
Kd (HLA-B*40:01 [4]): ≥ 71300 nM
Kd (HLA-B*58:01 [5]): 2250 nM
Kd (HLA-C*08:02; source organism: SARS-CoV1): ≤ 1 nM
Kd (HLA-A*23:01): ≥ 77800 nM
Kd (HLA-A*24:02): ≥ 77600 nM
Kd (HLA-A*29:02): 17 nM
Kd (HLA-A*30:02): 1600 nM

Kd (HLA-C*08:02; source organism: Escherichia coli APEC O1): 1010 nM
Kd (HLA-A*01:01 [6]): 5.1 nM
Kd (HLA-A*26:01 [7]): 16 nM
Kd (HLA-B*58:01 [8]): 36 nM
Sequence: YTTDVNQLY

Sequence: YVIKKSSPL
Kd (HLA-C*03:03; source organism: Yersinia pestis Nepal516): 2 nM
Kd (HLA-C*05:01): ≥ 20000 nM
Kd (HLA-C*06:02): ≥ 20000 nM
Kd (HLA-C*14:02): 163 nM
Kd (HLA-C*15:02): 3950 nM
Kd (HLA-B*08:01): 196 nM

Sequence: RVYEALYYV
Kd (HLA-C*03:03; [22]): 1240 nM
Kd (HLA-C*08:02; [22]): ≥ 20000 nM
Kd (HLA-C*12:03; [22]): 26 nM
Kd (HLA-A*02:01; [22]): 0.8 nM
Kd (HLA-A*03:01 [9]): 717 nM
Kd (HLA-A*11:01): 80.2 nM
Kd (HLA-A*31:01): 13.7 nM
Kd (HLA-A*33:01): ≥ 77700 nM
Kd (HLA-A*68:01): ≥ 77700 nM
Kd (HLA-B*07:02 [10]): ≥ 53800 nM
Kd (HLA-B*35:01): ≥ 77400 nM
Kd (HLA-B*51:01 [11]): ≥ 67800 nM
Kd (HLA-B*53:01): ≥ 78200 nM
Kd (HLA-B*54:01): 6410 nM

Sequence: SSDPGTNTT
IC50 (HLA-A*01:01 [12]; source organism: Zaire ebolavirus): ≥ 162000 nM

Kd (HLA-B*39:01): 27 nM
Kd (HLA-B*40:01 [13]): 8.3 nM
Sequence: EEQQSMLAL

Sequence: FATPAFFLI
Kd (HLA-A*02:19): ≥ 20000 nM
Kd (HLA-A*03:01 [14]): ≥ 20000 nM
Kd (HLA-A*26:01 [2]; [23]): ≥ 20000 nM
Kd (HLA-B*15:01 [3]; [23]): ≥ 20000 nM
Kd (HLA-B*18:01 [15]): ≥ 20000 nM
Kd (HLA-B*27:03): ≥ 20000 nM
Kd (HLA-B*46:01): ≥ 20000 nM
Kd (HLA-B*51:01 [16]): 859 nM
Kd (HLA-C*03:03; [24]): ≤ 1 nM
Kd (HLA-C*08:02; [24]): 198 nM

Sequence: YVTLNASQY
IC50 (HLA-A*01:01 [12]; [22]): 17100 nM
IC50 (HLA-B*15:01 [17]): 8060 nM
Kd (HLA-A*03:01 [9]): 4770 nM
Kd (HLA-A*11:01): 1120 nM
Kd (HLA-A*31:01): ≥ 51400 nM
Kd (HLA-A*33:01): ≥ 77700 nM
Kd (HLA-A*68:01): 10.7 nM

Kd (HLA-B*07:02 [18]): 3.1 nM
Kd (HLA-C*12:03; source organism: Homo sapiens): ≤ 1 nM
Kd (HLA-A*02:01; source organism: Homo sapiens): ≥ 20000 nM
Kd (HLA-B*15:01 [19]): ≥ 20000 nM
Kd (HLA-B*18:01 [20]): ≥ 20000 nM
Kd (HLA-B*51:01 [21]): ≥ 20000 nM
Sequence: FAAPHRGVA
